The DeepSol protein solubility set

test: soluble on expression in E. coli; label from the status in PepcDB or PDB records

Sequence | soluble on expression in E. coli
MSLKTITTFENKKVLVLGLARSGEAAARLLAKLGAIVTVNDGKPFDENPTAQSLLEEGIKVVCGSHPLELLDEDFCYMIKNPGIPYNNPMVKKALEKQIPVLTEVELAYLVSESQLIGITGSNGKTTTTTMIAEVLNAGGQRGLLAGNIGFPASEVVQAANDKDTLVMELSSFQLMGVKEFRPHIAVITNLMPTHLDYHGSFEDYVAAKWNIQNQMSSSDFLVLNFNQGISKELAKTTKATIVPFSTTEKVDGAYVQDKQLFYKGENIMSVDDIGVPGSHNVENALATIAVAKLAGISNQVIRETLSNFGGVKHRLQSLGKVHGISFYNDSKSTNILATQKALSGFDNTKVILIAGGLDRGNEFDELIPDITGLKHMVVLGESASRVKRAAQKAGVTYSDALDVRDAVHKAYEVAQQGDVILLSPANASWDMYKNFEVRGDEFIDTFESLRGEGHHHHHH | soluble
MGSDKIHHHHHHMAKEKTIYVCRSCGTKYAKWQGNCNACGEWNCIDEEKVPAPASGKHAAKSFMPREQDNRPRLLQDVESGDEERIRLGDEEFDRVLGGGIVKGAFVLLGGEPGIGKSTLILQTVLRLPQLRTLYVSGEESARQLKMRAERLGQAMNGCYVYCETNIERILSRAEELTPDLLVIDSIQTVYTEEMESSAGSVGQIRECAALLLKYCKTTGIPVIVIGHITKEGSIAGPKVLEHIVDTVLLFDGDKHHLYRILRGQKNRYGSTSELGIYEMRQDGLRGVENPSEHLITRNREDLSGIAIAVAMEGIRPILIEAQALVSSAIYANPQRSATGFDIRRMNMLLAVLEKRAGFKLIQKDVFLNIAGGIKIADPATDLAVISAVLASSLDIVIPPAVCMTGEVGLSGEIRPVSRIEQRITEARRIGFKEILVPADNFRQEDAGRFGIRLVPVRKVEEAFRHLFSKGRE | not soluble
MFQAQHLTKSFGDLVLFEDLSFSIERGEKVGLIARNGNGKTTLMNILTGIDSPDSGEVIYQNGIRRAYLPQLPQVLPGSTVLETCFGHNDEMTSLIAQWEEASARGDGKRMEELLPEMDALGAWEYEQRAREILTRLHLDDLHCTTDNLSGGELKRIALAGTLIGNPELLFLDEPTNHLDLDVIEWLEGYLSHQQIGLLLVTHDRYFLDRVCNRILELDNKQLYAYKGNYEYYLNKREERLEATERETSRAANLLRREAEWMHRRPQARGTKAKSRIDAFYELKEKAQPRHRDETLHLSEQGRYIGNKIFEAHKVCKAFGDRTILSDFDYIFSRYDKVGIVGPNGVGKTTFLRLLLGEEKPDSGYFDVGETVRFGYYSQKGMQFDENKRVIEAVQDIAEVIRNEKDGTTLSASALLTQFLFPPEKQYTPIHKLSGGEQRRLYLCTVLMKNPNFLILDEPTNDLDILTLNVLENYLSEFKGCVLVVSHDRFFMDKVVNHLFTFEGNGIVKDFPGNYTQYREYKQQEEAERQTVESSPSTRKAESEKPRTDAAERPRKLTFKEKQELERLEAELPKLEKEKAELESRMSSGTMATDELLTAGDRIAALIEEIDSKGMRWLELSDI | not soluble
MSVIRLHQYQVVGRALPTEKDEQPKIYRMKLWATNEVLAKSKFWYYLRRQKKVKKSNGQMLAINEIFEKNPTTIKNFGIWLRYQSRTGYHNMYKEYRDTTLNGAVEQMYTEMASRHRVRFPCIQIIKTATVPASLCKRESTKQFHNSKIKFPLVFRKVRPPTRKLKTTFKANKPNLFM | soluble
MRQVDFFTLRLFLSAVEEGQIGRAALRENIAPSAATKRIQELEDVVGLRLLERTPKGVILSPAGEVLVRHIRQIFTNVDELRAELSAFSEGVRGEVSVASARSIIAPYLAHEFGAYIRDYPLVDLIVREVENAAIVQAVAQGDADIGVFAAAPALDLSGVDVMPYRQDRMVVVMSHGHRLAQRQSVTFEDLLSENLIVPAALHMALRTAADRLGREFEPKYGVTSAGVAISLAQEGLGVTIQPECLLDLKVFEHAVGVELAESWANRSIHIATARGRAAGPAANLLLKQLLDRPRALSSVSD | not soluble
MGSDKIHHHHHHMIRINMFSQADSVAGQGVGAAYLELIRLLRTHLVDDFYVTINKYGRSDLTHYHTINPTYFANSFSPARGRKIGYVHFLPDTLERSIKLPGVAKKVFYQYVIDFYKRMDQIVVVNPIFIDKLTEYGLDRNKIRYIPNFVAKSEFYEQTQAKKNATRQELGIPQDKFVVFGDGQVQARKGVDDFAKLAEANPDYQFIWAGGFSFGKITDGYDHFKQLVENPPKNLTFTGIIDREKLVDYLNMADLFLLPSFDELFPMSVLEAFSCGTPVLLRDLDLYRAIIDGYYLAGKDSAEMNEQLRFAATHPEVLARQQELSRKASQQYSEDHLAEIWRDFYQEQYQLGRELGQISYE | not soluble
MAEPKYAIIINDIKRLISDGTFKPGEKIYSEDELKKKYNVSNTTVVRALHELVRAGILARYQGKGTYVSKSIINEEVIFNEYTTVPNGKFNRKTKIANEHTKVVAINEIQDARIAKNLQIPPENMIVHFQRIRLIDDVPWTVQNNYMAKANLINVDLTNFERFNSLSEVIKELYGINILHEAMKERIQVEFPVKDKNNFKLLEIDSELPLYHIERITYVPEGQPYEYIESYLRHNFYSIEIEKKKQ | not soluble
GMDVTIERVNDFDGYNWLPLLAKSSQEGFQLVERMLRNRREESFQEDGEAMFVALSTTNQVLACGGYMKQSGQARTGRIRHVYVLPEARSHGIGTALLEKIMSEAFLTYDRLVLYSEQADPFYQGLGFQLVSGEKITHTLDKTAFADSNR | soluble
MSLSEIDQVSYNFHIRPILSDKCFACHGPDANKREADLRLDTEEGAFKALKESPGKFALVSGKPEESELFHRITSEDPGELMPPTESNLVLSDTEIGLIKKWIEQGAEYEPHWAFTKAEKPELPSENEWAVNEIDRFVYQKMVEKGLEPNPKADPQELIKRASLDITGLPPSPEILDQYSDLSNDAYQNLLDGLLADPSFGEKLGVLWMDISRYADSYGYQDDNIRSQWPYRDWVIHAFNENMPYDQFITYQLAGDLLPNATKEQILATAFNRNHKYTEEGGVIDEEYRIEYVLDKTNTFSKGVLGITMECAQCHDHKYDPFSQKDYYELFAFFNNTPEKGYEGDVSVSKPAKTPILWVDQEGHHHHHH | soluble
MRRRENMDVNKAIRTAVDTGKVILGSKRTIKFVKHGEGKLVVLAGNIPKDLEEDVKYYAKLSNIPVYQHKITSLELGAVCGKPFPVAALLVLDEGLSNIMELVEKKEGGE | soluble
MGSDKIHHHHHHMELLECVEHVIKTRRSHRLYLDKPVEREKLEKMIELAMWAPSAMNRQQWFFVVVAGKRLKEMIGIVEKGYEHILPRLQRFFAETPKVIEQTRRFFKSLGNAPAAVFAYYTPTGDDYSDVQSVSAAIQNMLLAAHAMGLGTCWMTGPVHVEEEINKALGVEGKKLVAVITVGYPAKQPPVPPRRDSEKKVVWMLD | not soluble
MGSDKIHHHHHHAKDKDAYRQYGINCIENGSYDDAVDAFQKALDQSVGSVGAEELDICYYKAKAQYLSGDVDGAIDTYTAIIDYNKDSDAYYLRGCIYFAKNDSDKGLKDFKTALSENNDNYELYLGVYETLSKYGMNDQGKEYLDNALKLKAKTADDYMQRGRIYTMLGDYDSAIKSLQKAIDEKLVKANYYMGEVYQKKGDNDSSQKYFKKYLDSGEADSYELMNMGQAQMDNGNYDTAITYFQNALELESVPNKQQITKAMIIAYEYSGDFATAKSKMEEYMKDYPDDEDAAREYQFLETR | not soluble
MGSDKIHHHHHHMSTFHPSHPTHNRLLAALPPIELDDLAPHLELVHLLPGDVLCKPGETLPYAYFPTSSVISIHCMLENGASSELTSVGREGMLGVSLFMGGEATQNWVSVQSAGYGYRLNAAFLLQEFNEGGMLQRLLLRYSQALITEAVQNVVCSRYHTAQQRLCRWLLSMLDRLGPQDLILTQESIASILGVRRESVTAIARKLLEAGTICYRRGHIMVIDQIGLQKETCECYKKVKKEFDQVFDEVKTCEKVRQNSINAANAL | not soluble
MWYHRLSHLHSRLQDLLKGGVIYPALPQPNFKSLLPLAVHWHHTASKSLTCAWQQHEDHFELKYANTVMRFDYVWLRDHCRSASCYNSKTHQRSLDTASVDLCIKPKTIRLDETTLFFTWPDGHVTKYDLNWLVKNSYEGQKQKVIQPRILWNAEIYQQAQVPSVDCQSFLETNEGLKKFLQNFLLYGIAFVENVPPTQEHTEKLAERISLIRETIYGRMWYFTSDFSRGDTAYTKLALDRHTDTTYFQEPCGIQVFHCLKHEGTGGRTLLVDGFYAAEQVLQKAPEEFELLSKVPLKHEYIEDVGECHNHMIGIGPVLNIYPWNKELYLIRLFKEKQNTVNRQWNSSLQCDIPERILTYRHFVSGTSIEHRGSLI | not soluble
MGSDKIHHHHHHDNDWVDQSRNPDVIAPDAYASFSINIPHASKTRAVSTDPGIAAENTVKSLHVFIYDAESPNTPTVAEFTVAGGTLTQKPAGSSTWMTSQPISTKKTDKYIFAGVNLNAEIVNYITSNGLGAFSYKDFTQEITKLADQTNGFVMFNSAYPTLTPAADLYEKKSEAENNHITISVNRVTAKAAVFQSQSFVVNGGGTMTDLKFGWRNLNKKFYFIQDNRDALIKDYNWANYTAEDFTRGTDAINVYASADVPTSFSYATENAFQYISGTSNVDAATFISVSGVFTPTNIISAKKNPPTVAADFEIIVNPKPVDKTFFVVRTADGVANYFIDGPTAEKFAELCAANTPQMPSINGIYLLSENTYSNGLCYYHIFVNGDAVTPQAPYNIYRNQYFKININSIQAPGNPSDNFDRGEPIKPNSWIGVDIQIIPWEVIEEDHDL | not soluble
SNAKDVLGLTLLEKTLKERLNLKDAIIVSGDSDQSPWVKKEMGRAAVACMKKRFSGKNIVAVTGGTTIEAVAEMMTPDSKNRELLFVPARGGLGEDVKNQANTICAHMAEKASGTYRLLFVPGQLSQGAYSSIIEEPSVKEVLNTIKSASMLVHGIGEAKTMAQRRNTPLEDLKKIDDNDAVTEAFGYYFNADGEVVHKVHSVGMQLDDIDAIPDIIAVAGGSSKAEAIEAYFKKPRNTVLVTDEGAAKKLLRDE | soluble
GPGSMADSNPTKEGTSSAPLHPLKDKWFVFYIPASKGNEYEHETKELGYVSTIEEVYSTINTLPPITLLPNDDNLVFSRNKIEPQFESFPGGMRFSIFCKTKTQCREALTYVVAVVLGEAIGRDACKGECVCDIVRIGHKGSAMYKESVRIEVWAHQSPYNTAMEKYLVSTLSAIPGITVSARPFK | soluble
MVTSEQLLFLEAWRAVDRAYVDKSFNGQSWFKLRETYLKKEPMDRRAQTYDAIRKLLAVLDDPFTRFLEPSRLAALRRGTAGSVTGVGLEITYDGGSGKDVVVLTPAPGGPAEKAGARAGDVIVTVDGTAVKGLSLYDVSDLLQGEADSQVEVVLHAPGAPSNTRTLQLTRQKVTINPVTFTTCSNVAAAALPPGAAKQQLGYVRLATFNSNTTAAAQQAFTELSKQGVAGLVLDIRNNGGGLFPAGVNVARMLVDRGDLVLIADSQGIRDIYSADGNSIDSATPLVVLVNRGTASASEVLAGALKDSKRGLIAGERTFGKGLIQTVVDLSDGSGVAVTVARYQTPAGVDINKIGVSPDVQLDPEVLPTDLEGVCRVLGSDAAPRLFG | soluble
MGSDKIHHHHHHMITEELEVGYNVPATVGMDEADIQTPCLILDLDALERNVKKMGDYAKAHNMRHRSHGKMHKSVDVQNLQEELGGAIGVCCQKVSEAEVFVRGGIKDVLVSNQVRNPAKIERLANLPKLGSTITVCVDDIDNVAELSAAATKAGTELNCYIEIDCGAGRCGVTTTEAVVEIAKAIDAAENLKFTGIQAYQGAMQHMDSFSDRKAKTQIAIDQVQEAIDALTEIGLKPEFVSGGGTGSYYFESNSGVFNELQCGSYAFMDADYGRILDEDGNRIDAGEWENALFILTSVMSHAKADKAIVDAGLKAQSVDSGLPFVYGRDDVEYVKCSDEHGVVSDPNGVLEINEKLKLVPGHCDPTCNVHDFYIGVRNGKVETVWPVSARGKMY | not soluble
